This series can be described thus: soluble on expression in E. coli; label from the status in PepcDB or PDB records.
Take “AIATDCEWFDMTWGSSASSGYCSQSDSDEHELELFYTARTSLRKSRKCRDKDEQSEVDWRKQDLSVTEIQQKVKEYNAQVNSNLFMVLNRDGSYTGFIKVQFKLARPVSLPPPRSVSSSSISSSCLGWDGGCQERTSFYLPRDTVKHLHISSSTRAREVIQALLNKFTVVDNPAKYSLYERSQRDNQVYLRKLADDECPLFLRLCAGPNEKVLSLVLKENETGEVNWDAFSFPELQNFLRILQREEEDHVRQIIRRYTLARDKMKEAMKNFSTPG”: the “soluble on expression in E. coli” value is listed as “soluble”.

Take “AIAVLLRHPVLGTEQLPDSWPSHWNTAIVGIPGYSRQRSDLSVVKDVSSPCLPLVAMPSCDDGLASLWNDVSRAV”: the “soluble on expression in E. coli” value is on record as “soluble”.

“AKMLGLDFVAVVPRSTSGAKIALIEAQGGRCHFIDRPPEIYSEARRLAAETNGHFMDQFTHAERATDWRGNNNIAESIYHQMIREEHPVPEWLVMSAGTGGTSATLGRYIRYRRHATRLLVVDPENSAFFGGYDSNSCDYATGMPSRIEGIGRPRVEPSFVGQVIDRMMRVPDAASIATARHASSVLGRRVGGSTGTNLWGAFAVVAEMLAAGRSGSVVTILCDGGERYADTYFDDDWVAGEGIDLTGPAAVLDRFA”: the “soluble on expression in E. coli” value is “not soluble”.

Regarding “ALTSNASGTFDGYYYELWKDTGNTTMTVYTQGRFSCQWSNINNALFRTGKKYNQNWQSLGTIRITYSATYNPNGNSYLCIYGWSTNPLVEFYIVESWGNWRPPGATSLGQVTIDGGTYDIYRTTRVNQPSIVGTATFDQYWSVRTSKRTSGTVTVTDHFRAWANRGLNLGTIDQITLCVEGYQSSGSANITQNTFSQSS”, the “soluble on expression in E. coli” value is on record as “soluble”.

In the case of “AMDFPQQLEACVKQANQALSRFIAPLPFQNTPVVETMQYGALLGGKRLRPFLVYATGHMFGVSTNTLDAPAAAVECIHAYSLIHDDLPAMDDDDLRRGLPTCHVKFGEANAILAGDALQTLAFSILSDADMPEVSDRDRISMISELASASGIAGMCGGQALDLDAEGKHVPLDALERIHRHKTGALIRAAVRLGALSAGDKGRRALPVLDKYAESIGLAFQVQDDILDVVGDTATLGKRQGADQQLGKSTYPALLGLEQARKKARDLIDDARQSLKQLAEQSLDTSALEALADYIIQRNK”, the “soluble on expression in E. coli” value is recorded as “soluble”.

For “ANIIANTSLTIGPSKLDVAKITPELLASLNEVGGSEANVATGYHAIEFLLWGQDLNGTNAGAGKRAYTDFVVGSGCTNGHCDRRGEYLKAAADLLVQDLEWMEKQWSADEKGNYRQELLTGSAENGLRKMLFGMGSLSLGELAGERMKVALEANSTEDEHDCFSDNTHNSHYYNEQGIYNVYTGTYSRQDGTVLTGPSIANLVAQEDKKAAEEIQKQFDATRSQVGELVTSAEKHNQHFDQLIAAGNAQGNALVNDTIMALVAQTGAIERAAGIVGIDSLSPDTADHEF”, the “soluble on expression in E. coli” value is “not soluble”.

With “AQKLSATSRILSSSRGPAPDDIADFFGTDRAAQHITLRRLRLGNGRPYAIDNGWYNSEFAPDLLENDVYNSVYSILDRVYGVPVTQAEQTVTAVAADEDTARLLDVTPGAPLLRILRQSLSGDKPVEWCVSLYRTDRYS”, the “soluble on expression in E. coli” value was “not soluble”.

On to “AQLQNLVLKDREATPNDHTFVPRDIRDNVGEVVESTGVPIGESRFTISLRKTSNGRYKSTLKLVVPVVQSQTVNGIVTPVVVRTSYVTVDFDYDARSTTKERNNFVGMIADALKADKMLVHDTIVNLQGVY”, for which the “soluble on expression in E. coli” value was “soluble”.

For “ASDDELFSMLDQRFGGGEDLLMSGDNGMTEEKLRRYLKRTVTELDSVTARLREVEHRAGE”, the “soluble on expression in E. coli” value is “soluble”.

For the sequence “ASEEDLAAATEKMQSMKGKKSQAAAALEAEQAKAEKRLSCLLKARTKLSFRVIRDGIKCHGGIHLKKQSEKAELDISVTNTAINNLPSDADIVITHKDLTDRAKAKLPNATHISVDNFLNSPKYDELIEKLKSNLIEREYCHASTRKGNIKLNQTVSSKEEAIKLAGQTLIDNGYVTEDYISKMFDREETSSTFMGNFIAIPHGTEEAKSEVLHSGISIIQIPEGVEYGEGNTAKVVFGIAGKNNEHLDILSNIAIICSEEETLNA”, the “soluble on expression in E. coli” value was “not soluble”.

In the case of “ASEKLRSKLMSADEAAQFVNHGDKVGFSGFTGAGYPKALPTAIANRAKEAHGAGNDYAIDLFTGASTAPDCDGVLAEADAIRWRMPYASDPIMRNKINSGSMGYSDIHLSHSGQQVEEGFFGQLNVAVIEITRITEEGYIIPSSSVGNNVEWLNAAEKVILEVNSWQSEDLEGMHDIWSVPALPNRIAVPINKPGDRIGKTYIEFDTDKVVAVVETNTADRNAPFKPVDDISKKIAGNFLDFLESEVAAGRLSYDGYIMQSGVGNVPNAVMAGLLESKFENIQAYTEVIQDGMVDLIDAGKMTVASATSFSLSPEYAEKMNNEAKRYRESIILRPQQISNHPEVIRRVGLIATNGLIEADIYGNVNSTNVSGSRVMNGIGGSGDFTRNGYISSFITPSEAKGGAISAIVPFASHIDHTEHDVMVVISEYGYADLRGLAPRERVAKMIGLAHPDYRPLLEEYYARATSGDNKYMQTPHDLATAFDFHINLAKNGSM”, the “soluble on expression in E. coli” value is recorded as “not soluble”.

“ASGRRAPRTGLLELRCGAGSGAGGERWQRVLLSLAEDALTVSPADGEPGPEPEPAQLNGAAEPGAAPPQLPEALLLQRRRVTVRKADAGGLGISIKGGRENKMPILISKIFKGLAADQTEALFVGDAILSVNGEDLSSATHDEAVQALKKTGKEVVLEVKYMKEVSPYFKNSAGGTSVGWDSPPASPLQRQPSSPGPQPRNLSEAKHVSLKMAYVSRRCTPTDPEPRYLEICAADGQDAVFLRAKDEASARSWAGAIQAQIGT”: the “soluble on expression in E. coli” value is on record as “soluble”.

Consider “ASIKENSYFAGGVKSLGFNQHGQDVSVGVMLPGEYTFGTQAPERMTVVKGALVVKRVGEADWTTYSSGESFDVEGNSSFELQVKDATAYLCEYL”, for which the “soluble on expression in E. coli” value is on record as “soluble”.

Regarding “ASLSPQPDVSGELNTEALTCIVERLESEIIDGSWIHISYEETDLEMMPFLVAQANKKYPELNLKFVMSVHELVSSIKETRMEGVESARFLVNMGSSGIHISVVDFRVMDGKTSVILFEPAACSAFGPALLALRTKAALEREQLPDCYFAMVELDIQRSSSECGIFSLALAKKLQLEFMNLVKIHEDNICERLCGEEPFLPSDKADRYLPVSFYKHTQGAQRLNEYVE”, the “soluble on expression in E. coli” value is given as “not soluble”.

Turning to “ASMTGGQQMGRILVAVLISGTGSNLQALIDSTREPNSSAQIDIVISNKAAVAGLDKAERAGIPTRVINHKLYKNRVEFDSAIDLVLEEFSIDIVCLAGFMRILSGPFVQKWNGKMLNIHPSLLPSFKGSNAHEQALETGVTVTGCTVHFVAEDVDAGQIILQEAVPVKRGDTVATLSERVKLAEHKIFPAALQLVASGTVQLGENGKICWVKEEPLEHHHHHH”, the “soluble on expression in E. coli” value was “soluble”.

For “ASNIYRLQQAAEAAVKTGRKIAVFGRSMEKAIVNGIELGYIKVPKGTFIEPSELKNLHASEVLIMCTGSQGESMAALARIANGTHRQVTLQPGDTVIFSSSPIPGNTTSVNKLINTIQEAGVDVIHGKVNNIHTSGHGGQQEQKLMLSLIKPKYFMPVHGEYRMQKVHAGLAMDIGIPKENIFIMENGDVLALTSDSARIAGHFNAQDIYVDGNGIGDIGAAVLRDRRDLSEDGVVLAVATVDFNTQMILAGPDILSRGFIYMRESGDLIRESQRVLFNAIRIALKNKDASIQSVNGAIVNALRPFLYEKTEREPIIIPMVL”, the “soluble on expression in E. coli” value is listed as “not soluble”.

On to “ATDMWLERAADVSWEAGAAITGTSERLDVQLDDDGDFHLLNDPGVGGGGSGGGGGGVFWDTPSPKVYPKGDTTPGVYRIMARGILGRYQAGVGVMHEGVFHTLWHTTRGAAIMSGEGRLTPYWGNVKEDRVTYGGPWKLDQKWNGVDDVQMIVVEPGKPAINVQTKPGIFKTAHGEIGAVSLDYPIGTSGSPIVNSNGEIIGLYGNGVILGNGAYVSAIVQGERVEEPVPEAYNPEMLKKRQLTVLDLHPGAGKTRRILPQIIKDAIQKRLRTAVLAPTRVVAAEMAEALRGLPVRYLTPAVQREHSGNEIVDVMCHATLTHRLMSPLRVPNYNLFVMDEAHFTDPASIAARGYIATRVEAGEAAAIFMTATPPGTSDPFPDTNSPVHDVSSEIPDRAWSSGFEWITDYAGKTVWFVASVKMSNEIAQCLQRAGKRVIQLNRKSYDTEYPKCKNGDWDFVITTDISEMGANFGASRVIDCRKSVKPTILDEGEGRVILSVPSAITSASAAQRRGRVGRNPSQIGDEYHYGGGTSEDDTMLAHWTEAKILLDNIHLPNGLVAQLYGPERDKTYTMDGEYRLRGEERKTFLELIKTADLPVWLAYKVASNGIQYNDRKWCFDGPRSNIILEDNNEVEIITRIGERKVLKPRWLDARVYSDHQSLKWFKDFAAGKR”, for which the “soluble on expression in E. coli” value is recorded as “soluble”.

(Values after the DeepSol protein solubility set.)
